We go through 1 molecule from US20220411516A1.

For this experiment, the target named is EGFRvIII (Epidermal Growth Factor Receptor Variant III) (human) (UniProt P00533). The experiment in a line: cell-based or functional assay.

B1: AMG 596 (bispecific antibody, part only; not given: CD3-binding domain; linkers, part only)
chain, part: QVQLVESGGGVVQSGRSLRLSCAASGFTFRNYGMHWVRQAPGKCLEWVAVIWYDGSDKYYADSVRGRFTISRDNSKNTLYLQMNSLRAEDTAVYYCARDGYDILTGNPRDFDYWGQGTLVTVSSDTVMTQTPLSSHVTLGQPASISCRSSQSLVHSDGNTYLSWLQQRPGQPPRLLIYRISRRFSGVPDRFSGSGAGTDFTLEISRVEAEDVGVYYCMQSTHVPRTFGCGTKVEIK
In the case of B1, the EC20 (in vitro cytotoxic activity) was 0.07 ng/mL, the EC50 (in vitro cytotoxic activity) turned out to be 0.41 ng/mL and the EC90 (concentration found to produce 90% cytotoxic activity) came out at 1.8 ng/mL.
